Measurements from paper PMC3848460.

Columns and labels:
[1] = biological target: T1, SYP41 (Arabidopsis thaliana) (UniProt O65359)
T1 sequence: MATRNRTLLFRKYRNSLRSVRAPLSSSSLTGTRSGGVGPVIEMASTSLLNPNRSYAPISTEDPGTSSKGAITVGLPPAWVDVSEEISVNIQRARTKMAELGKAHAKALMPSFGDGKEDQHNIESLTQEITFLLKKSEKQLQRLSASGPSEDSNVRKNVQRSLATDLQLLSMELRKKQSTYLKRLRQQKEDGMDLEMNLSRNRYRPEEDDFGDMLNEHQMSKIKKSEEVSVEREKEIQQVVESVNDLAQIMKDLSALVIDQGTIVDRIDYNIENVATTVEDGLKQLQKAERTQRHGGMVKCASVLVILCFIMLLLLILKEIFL

[2] = biological target: T2, SYP42 (Arabidopsis thaliana) (UniProt Q9SWH4)
T2 sequence: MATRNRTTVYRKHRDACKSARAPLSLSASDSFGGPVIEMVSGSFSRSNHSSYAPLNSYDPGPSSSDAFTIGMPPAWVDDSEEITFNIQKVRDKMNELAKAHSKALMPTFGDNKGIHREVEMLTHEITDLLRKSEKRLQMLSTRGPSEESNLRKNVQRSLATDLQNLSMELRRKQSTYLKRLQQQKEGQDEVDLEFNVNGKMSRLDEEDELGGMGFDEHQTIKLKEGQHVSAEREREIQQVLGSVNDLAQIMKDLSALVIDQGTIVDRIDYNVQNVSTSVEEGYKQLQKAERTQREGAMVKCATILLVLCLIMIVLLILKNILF

[3] = biological target: T3, SYP43 (Arabidopsis thaliana) (UniProt Q9SUJ1)
T3 sequence: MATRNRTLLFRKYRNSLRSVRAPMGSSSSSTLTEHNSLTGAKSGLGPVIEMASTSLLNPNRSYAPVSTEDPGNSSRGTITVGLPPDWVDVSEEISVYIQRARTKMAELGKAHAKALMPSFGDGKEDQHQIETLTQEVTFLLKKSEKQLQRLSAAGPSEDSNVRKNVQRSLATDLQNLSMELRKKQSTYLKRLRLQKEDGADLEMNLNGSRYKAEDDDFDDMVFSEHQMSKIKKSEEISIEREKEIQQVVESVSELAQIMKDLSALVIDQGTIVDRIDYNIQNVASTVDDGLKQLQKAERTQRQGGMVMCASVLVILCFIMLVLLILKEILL

soluble fragment of VTI12 (domain or fragment)
< 4%: NBD fluorescence increase (lipid mixing) of SYP41 acceptor vesicles with R-VTI11 donor vesicles after 30 min preincubation with YKT62 and VTI12s; pair blocked: m1 + m4 [1] | NBD fluorescence increase (lipid mixing) of SYP41 acceptor vesicles with R-VTI12 donor vesicles after 30 min preincubation with YKT62 and VTI12s; pair blocked: m1 + m5 [1] | NBD fluorescence increase (lipid mixing) of SYP42 acceptor vesicles with R-VTI11 donor vesicles after 30 min preincubation with YKT62 and VTI12s; pair blocked: m2 + m4 [2] | NBD fluorescence increase (lipid mixing) of SYP42 acceptor vesicles with R-VTI12 donor vesicles after 30 min preincubation with YKT62 and VTI12s; pair blocked: m2 + m5 [2] | NBD fluorescence increase (lipid mixing) of SYP43 acceptor vesicles with R-VTI11 donor vesicles after 30 min preincubation with YKT62 and VTI12s; pair blocked: m3 + m4 [3] | NBD fluorescence increase (lipid mixing) of SYP43 acceptor vesicles with R-VTI12 donor vesicles after 30 min preincubation with YKT62 and VTI12s; pair blocked: m3 + m5 [3]

B1: soluble fragment of VTI11 (domain or fragment)
chain: MSDVFDGYERQYCELSASLSKKCSSAISLDGEQKKQKLSEIKSGLENAEVLIRKMDLEARTLPPNLKSSLLVKLREFKSDLNNFKTEVKRITSGQLNAAARDELLEAGMADTKTASADQRARLMMSTERLGRTTDRVKDSRRTMMETEEIGVSILQDLHGQRQSLLRAHETLHGVDDNIGKSKKILTDMTRRMNKNKWTI
< 4%: NBD fluorescence increase (lipid mixing) of SYP41 acceptor vesicles with R-VTI11 donor vesicles after 30 min preincubation with YKT62 and VTI11s; pair blocked: m1 + m4 [1] | NBD fluorescence increase (lipid mixing) of SYP41 acceptor vesicles with R-VTI12 donor vesicles after 30 min preincubation with YKT62 and VTI11s; pair blocked: m1 + m5 [1] | NBD fluorescence increase (lipid mixing) of SYP42 acceptor vesicles with R-VTI11 donor vesicles after 30 min preincubation with YKT62 and VTI11s; pair blocked: m2 + m4 [2] | NBD fluorescence increase (lipid mixing) of SYP42 acceptor vesicles with R-VTI12 donor vesicles after 30 min preincubation with YKT62 and VTI11s; pair blocked: m2 + m5 [2] | NBD fluorescence increase (lipid mixing) of SYP43 acceptor vesicles with R-VTI11 donor vesicles after 30 min preincubation with YKT62 and VTI11s; pair blocked: m3 + m4 [3] | NBD fluorescence increase (lipid mixing) of SYP43 acceptor vesicles with R-VTI12 donor vesicles after 30 min preincubation with YKT62 and VTI11s; pair blocked: m3 + m5 [3]
